The results in this text go back to paper doi:10.1101/2025.07.07.663466.

This test concerns the target T1, recombinant M. tuberculosis GroEL1 (M. tuberculosis), P9WPE9.
T1 chain: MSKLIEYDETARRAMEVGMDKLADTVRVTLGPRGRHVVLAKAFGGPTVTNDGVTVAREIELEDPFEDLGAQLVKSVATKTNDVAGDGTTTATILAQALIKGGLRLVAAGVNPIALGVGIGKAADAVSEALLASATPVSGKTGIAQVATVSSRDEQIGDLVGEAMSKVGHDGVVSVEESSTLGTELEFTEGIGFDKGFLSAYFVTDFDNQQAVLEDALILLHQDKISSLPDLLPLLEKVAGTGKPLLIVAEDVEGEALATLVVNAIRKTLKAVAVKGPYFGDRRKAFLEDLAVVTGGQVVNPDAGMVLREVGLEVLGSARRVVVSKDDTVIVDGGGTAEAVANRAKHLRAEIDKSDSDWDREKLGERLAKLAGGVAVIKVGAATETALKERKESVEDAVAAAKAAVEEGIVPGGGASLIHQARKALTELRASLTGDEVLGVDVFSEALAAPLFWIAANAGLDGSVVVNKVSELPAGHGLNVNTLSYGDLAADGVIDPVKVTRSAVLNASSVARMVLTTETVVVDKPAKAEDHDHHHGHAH
As to the kind of experiment: native gel or EMSA. The note with it: remark: other sources report otherwise.

B1: recombinant M. tuberculosis GroEL1, P9WPE9 1-539 (natural protein)
chain: MSKLIEYDETARRAMEVGMDKLADTVRVTLGPRGRHVVLAKAFGGPTVTNDGVTVAREIELEDPFEDLGAQLVKSVATKTNDVAGDGTTTATILAQALIKGGLRLVAAGVNPIALGVGIGKAADAVSEALLASATPVSGKTGIAQVATVSSRDEQIGDLVGEAMSKVGHDGVVSVEESSTLGTELEFTEGIGFDKGFLSAYFVTDFDNQQAVLEDALILLHQDKISSLPDLLPLLEKVAGTGKPLLIVAEDVEGEALATLVVNAIRKTLKAVAVKGPYFGDRRKAFLEDLAVVTGGQVVNPDAGMVLREVGLEVLGSARRVVVSKDDTVIVDGGGTAEAVANRAKHLRAEIDKSDSDWDREKLGERLAKLAGGVAVIKVGAATETALKERKESVEDAVAAAKAAVEEGIVPGGGASLIHQARKALTELRASLTGDEVLGVDVFSEALAAPLFWIAANAGLDGSVVVNKVSELPAGHGLNVNTLSYGDLAADGVIDPVKVTRSAVLNASSVARMVLTTETVVVDKPAKAEDHDHHHGHAH
One may read the stoichiometry N as the number of molecules, sites or subunits per partner or assembly. Take B1: the stoichiometry N turned out to be 2.
